Measurements published in the PETadex activity labels.

What was measured:
[1] = Proxy for plastic degradation [Weight/mass loss]; conditions: pH 8
PET [2] = test: Proxy for plastic degradation [Weight/mass loss]
pNPB = test: Proxy for plastic degradation [Residual activity]; conditions: pH 8
PCL = test: Proxy for plastic degradation [Residual activity]; conditions: pH 8
PET [3] = test: Proxy for plastic degradation [Released monomer concentration (HPLC/LC-MS) (MHET+TPA)]; conditions: pH 8
PET [4] = test: Proxy for plastic degradation [adsorption equilibrium constant (K_A), utilising heterogeneous kinetic model]; conditions: pH 8
PET [5] = test: Proxy for plastic degradation [MHET inhibitor binding constant (beta), utilising the kinetic inhibition model]; conditions: pH 8
PET [6] = test: Proxy for plastic degradation [hydrolysis rate constant (k_h), utilising heterogeneous kinetic model] (µmol/(cm²·h)); conditions: pH 8
PET [7] = test: Proxy for plastic degradation [Absorbance @ 240nm]

B1: unnamed (protein)
chain: MDGVLWRVRTAALMAALLALAAWALVWASPSVEAQSNPYQRGPNPTRSALTADGPFSVATYTVSRLSVSGFGGGVIYYPTGTSLTFGGIAMSPGYTADASSLAWLGRRLASHGFVVLVINTNSRFDYPDSRASQLSAALNYLRTSSPSAVRARLDANRLAVAGHSMGGGGTLRIAEQNPSLKAAVPLTPWHTDKTFNTSVPVLIVGAEADTVAPVSQHAIPFYQNLPSTTPKVYVELDNASHFAPNSNNAAISVYTISWMKLWVDNDTRYRQFLCNVNDPALSDFRTNNRHCQ
[1]
  Proxy for plastic degradation: 9 mg
PET [2]; pH 8
  Proxy for plastic degradation: 1.5 mg

B2: unnamed (protein)
chain: SNPYQRGPNPTRSALTADGPFSVATYTVSRLSVSGFGGGVIYYPTGTSLTFGGIAMSPGYTADASSLAWLGRRLASHGFVVLVINTNSRFDYPDSRASQLSAALNYLRTSSPSAVRARLDANRLAVAGHSMGGGGTLRIAEQNPSLKAAVPLTPWHTDKTFNTSVPVLIVGAEADTVAPVSQHAIPFYQNLPSTTPKVYVELDNASHFAPNSNNAAISVYTISWMKLWVDNDTRYRQFLCNVNDPALSDFRTNNRHCQHHHHHH
pNPB; 40 °C
  Proxy for plastic degradation: 100%
pNPB; 50 °C
  Proxy for plastic degradation: 100%
pNPB; 90 °C
  Proxy for plastic degradation: 0%
pNPB; 95 °C
  Proxy for plastic degradation: 0%

B3: unnamed (protein)
chain: MARTMRSRVVAGAVACAMSIAPFAGTTAVMTLATTHAAMAATAPAAGYAATRYPIILVHGLSGTDKYAGVLEYWYGIQEDLQQNGATVYVANLSGFQSDDGPNGRGEQLLAYVKTVLAATGATKVNLVGHSQGGLSSRYVAAVAPDLVASVTTIGTPHRGSEFADFVQDVLAYDPTGLSSSVIAAFVNVFGILTSSSHNTNQDALAALQTLTTARAATYNQNYPSAGLGAPGSCQTGAPTETVGGNTHLLYSWAGTAIQPTLSVFGVTGATDTSTLPLVDPANVLDLSTLALFGTGTVMINRGSGQNDGLVSKCSALYGKVLSTSYKWNHLDEINQLLGVRGAYAEDPVAVIRTHANRLKLAGV
[1]
  Proxy for plastic degradation: 2.8 mg
PET [2]; pH 8
  Proxy for plastic degradation: 0 mg

B4: unnamed (protein)
chain: ANPYERGPNPTDALLEARSGPFSVSEENVSRLSASGFGGGTIYYPRENNTYGAVAISPGYTGTEASIAWLGERIASHGFVVITIDTITTLDQPDSRAEQLNAALNHMINRASSTVRSRIDSSRLAVMGHSMGGGGSLRLASQRPDLKAAIPLTPWHLNKNSSVTVPTLIIGADLDTIAPVATHAKPFYNSLPSSISKAYLELDGATHFAPNIPNKIIGKYSVAWLKRFVDNDTRYTQFLCPGPRDGLFGEVEEYRSTCPFY
PET [2]; pH 8
  Proxy for plastic degradation: 15.9%
PCL
  Proxy for plastic degradation: 36.5%
PET [3]
  Proxy for plastic degradation: 27 µM
PET [4]
  Proxy for plastic degradation: 0.338 mL/µg
PET [5]
  Proxy for plastic degradation: 0.738 L/mmol
PET [6]
  Proxy for plastic degradation: 0.094

B5: unnamed (protein)
chain: MELALALSLIASVAAAPTATLANGDTITGLNAIINEAFLGIPFAEPPVGNLRFKDPVPYSGSLDGQKFTSYGPSCMQQNPEGTYEENLPKAALDLVMQSKVFEAVSPSSEDCLTINVVRPPGTKAGANLPVMLWIFGGGFEVGGTSTFPPAQMITKSIAMGKPIIHVSVNYRVSSWGFLAGDEIKAEGSANAGLKDQRLGMQWVADNIAAFGGDPTKVTIFGESAGSMSVMCHILWNDGDNTYKGKPLFRAGIMQSGAMVPSDAVDGIYGNEIFDLLASNAGCGSASDKLACLRGVSSDTLEDATNNTPGFLAYSSLRLSYLPRPDGVNITDDMYALVREGKYANIPVIIGDQNDEGTFFGTSSLNVTTDAQAREYFKQSFVHASDAEIDTLMTAYPGDITQGSPFDTGILNALTPQFKRISAVLGDLGFTLARRYFLNHYTGGTKYSFLSKQLSGLPVLGTFHSNDIVFQDYLLGSGSLIYNNAFIAFATDLDPNTAGLLVKWPEYTSSSQSGNNLMMINALGLYTGKDNFRTAGYDALFSNPPSFFV
[1]
  Proxy for plastic degradation: 0.2 mg
PET [2]; pH 8
  Proxy for plastic degradation: 0 mg

B6: unnamed (protein)
chain: ANPYERGPNPTDALLEARSGPFSVSEENVSRLSASGFGGGTIYYPRENNTYGAVAISPGYTATEASIAWLGERIASHGFVVITIDTITTLDQPDSRAEQLNAALNHMINRASSTVRSRIDSSRLAVMGHSMGGGGSLRLASQRPDLKAAIPLTPWHLNKNWSSVTVPTLIIGADLDTIAPVATHAKPFYNSLPSSISKAYLELDGATHAAPNIPNKIIGKYSVAWLKRFVDNDTRYTQFLCPGPRDGLFGEVEEYRSTCPFYPNSSSVDKLAAALE
PET [2]; pH 9, 6 h
  Proxy for plastic degradation: 20%

B7: unnamed (protein)
chain: MFQRVWALTAALMLMLSLGATSSHAAQNPHERGPDPSNSYIEQARGSYSVSQRSISRLGSDGFRDGTMYYPTSTADGRFGVVAISPGYTASESTIAWLGPRLASFGFVVVTINTDSRYDQPRQRATQLHAALDHAIGDSVVGPRIDTSRQAVMGHSMGGGGALQAAEERDEIRAAVPLTPWNLKKGWSGVDAATLVIGAENDAIAPVRSHSIPFYESLTNAERRAYLELRREGHFAPNSSNTLIAKYSVSWLKRYVDNDLRYDQFIDPGPRTGITTGVSDYRLG
PET [7]; pH 8, 0 h
  Proxy for plastic degradation: 0 µM
PET [7]; pH 8, 10 °C
  Proxy for plastic degradation: 0.012 AU
PET [7]; pH 8, 28 °C
  Proxy for plastic degradation: 0.016 AU
PET [7]; pH 8, 37 °C
  Proxy for plastic degradation: 0.045 AU
PET [7]; pH 8, 45 °C
  Proxy for plastic degradation: 0.073 AU
PET [7]; pH 8.5
  Proxy for plastic degradation: 0.199 AU
PET [7]; pH 9.5
  Proxy for plastic degradation: 0.085 AU
PET [7]; pH 10.5
  Proxy for plastic degradation: 0.015 AU
